PMC4337239, “Polyol specificity of recombinant Arabidopsis thaliana sorbitol dehydrogenase studied by enzyme kinetics and in silico modeling” (Frontiers in Plant Science, 2015)

Key:
Assay in all cases: purified protein
purified protein [1] = substrate: OC[C@@H](O)[C@@H](O)[C@@H](O)CO; conditions: 1.36 mM NAD+, 100 mM Tris-HCl pH 9, 25 °C, Michaelis-Menten fit
purified protein [2] = substrate: OC[C@@H](O)[C@H](O)[C@@H](O)CO; conditions: 1.36 mM NAD+, 100 mM Tris-HCl pH 9, 25 °C, fit with substrate inhibition
purified protein [3] = substrate: OC[C@@H](O)[C@@H](O)[C@H](O)[C@@H](O)CO; type: biochemical, Arabidopsis thaliana; conditions: 1.36 mM NAD+, 100 mM Tris-HCl pH 9, 25 °C, Michaelis-Menten fit

B1: recombinant AtSDH (Arabidopsis thaliana) (protein)
chain: MGKGGMSQGEGSKVEEENMAAWLVGINTLKIQPFLLPSVGPHDVRVRMKAVGICGSDVHYLKTMRCADFVVKEPMVIGHECAGIIEEVGEEVKHLVVGDRVALEPGISCWRCNLCREGRYNLCPEMKFFATPPVHGSLANQVVHPADLCFKLPENVSLEEGAMCEPLSVGVHACRRAEVGPETNVLVMGAGPIGLVTMLAARAFSVPRIVIVDVDENRLAVAKQLGADEIVQVTTNLEDVGSEVEQIQKAMGSNIDVTFDCAGFNKTMSTALAATRCGGKVCLVGMGHGIMTVPLTPAAAREVDVVGVFRYKNTWPLCLEFLTSGKIDVKPLITHRFGFSQKEVEDAFETSARGSNAIKVMFNL
notes: full length 364 residues; N-terminal 6xHis tag cut off by TEV protease; pEXP5-NT/TOPO, cell-free in vitro expression (Expressway); oligomeric state not determined
Purified protein [1]
  Km: 1.05 ± 0.10 mM
  kcat: 1.83 s⁻¹
  kcat/Km: 1740 M⁻¹ s⁻¹
Purified protein [2]
  Km: 0.27 ± 0.04 mM
  kcat: 2.12 s⁻¹
  kcat/Km: 7740 M⁻¹ s⁻¹
Purified protein [3]
  Km: 0.96 ± 0.07 mM
  kcat: 2.13 ± 0.03 s⁻¹
  kcat/Km: 2230 ± 170 M⁻¹ s⁻¹
